# Measurements as given in patent US20190300617A1 (Amgen, published 2019).
# B1: Erenumab CEX-HPLC Basic Fraction F8 (antibody, human IgG2, lambda, V domains shown)
# VH: QVQLVESGGGVVQPGRSLRLSCAASGFTFSSFGMHWVRQAPGKGLEWVAVISFDGSIKYSVDSVKGRFTISRDNSKNTLFLQMNSLRAEDTAVYYCARDRLNYYDSSGYYHYKYYGMAVWGQGTTVTVSS
# VL: QSVLTQPPSVSAAPGQKVTISCSGSSSNIGNNYVSWYQQLPGTAPKLLIYDNNKRPSGIPDRFSGSKSGTSTTLGITGLQTGDEADYYCGTWDSRLSAVVFGGGTKLTVLG
# modifications: disulfide isoforms by RP-HPLC: 2.0% IgG2-B, 23.3% IgG2-A/B, 73.3% IgG2-A
# B2: Erenumab CEX-HPLC Main Fraction F5 (antibody, human IgG2, lambda, V domains shown)
# VH: B1 VH
# VL: B1 VL
# modifications: disulfide isoforms by RP-HPLC: 2.9% IgG2-B, 33.9% IgG2-A/B, 62.4% IgG2-A
# B3: Erenumab CEX-HPLC Acidic Fraction F4 (antibody, human IgG2, lambda, V domains shown)
# VH: B1 VH
# VL: B1 VL
# modifications: disulfide isoforms by RP-HPLC: 7.0% IgG2-B, 52.5% IgG2-A/B, 39.4% IgG2-A
# B4: Erenumab CEX-HPLC Basic Fraction F7 (antibody, human IgG2, lambda, V domains shown)
# VH: B1 VH
# VL: B1 VL
# modifications: disulfide isoforms by RP-HPLC: 3.9% IgG2-B, 28.6% IgG2-A/B, 65.4% IgG2-A
# B5: Erenumab CEX-HPLC Basic Fraction F9 (antibody, human IgG2, lambda, V domains shown)
# VH: B1 VH
# VL: B1 VL
# modifications: disulfide isoforms by RP-HPLC: 11.0% IgG2-B, 31.3% IgG2-A/B, 55.9% IgG2-A
# B6: Erenumab CEX-HPLC Main Fraction F6 (antibody, human IgG2, lambda, V domains shown)
# VH: B1 VH
# VL: B1 VL
# modifications: disulfide isoforms by RP-HPLC: 3.9% IgG2-B, 27.8% IgG2-A/B, 65.5% IgG2-A
# B7: Erenumab CEX-HPLC Acidic Fraction F2 (antibody, human IgG2, lambda, V domains shown)
# VH: B1 VH
# VL: B1 VL
# modifications: disulfide isoforms by RP-HPLC: 21.4% IgG2-B, 40.4% IgG2-A/B, 35.8% IgG2-A
# B8: Erenumab CEX-HPLC Acidic Fraction F3 (antibody, human IgG2, lambda, V domains shown)
# VH: B1 VH
# VL: B1 VL
# modifications: disulfide isoforms by RP-HPLC: 11.2% IgG2-B, 55.1% IgG2-A/B, 32.4% IgG2-A
# B9: Erenumab SE-UHPLC Fraction HMW 2 (antibody, human IgG2, lambda, V domains shown)
# VH: B1 VH
# VL: B1 VL
# B10: Erenumab SE-UHPLC Fraction Main (antibody, human IgG2, lambda, V domains shown)
# VH: B1 VH
# VL: B1 VL
# B11: Erenumab SE-UHPLC Fraction HMW 1 (antibody, human IgG2, lambda, V domains shown)
# VH: B1 VH
# VL: B1 VL
# B12: Erenumab HIC-HPLC Pre-peak Fraction F1 (antibody, human IgG2, lambda, V domains shown)
# VH: B1 VH
# VL: B1 VL
# modifications: Asp105 isomerization 0.6%; Asp105 succinimide 0.2%; Asn102 deamidation ND; Leu195/Ser196 cleavage 10.9%; further cleavage sites Leu315/Thr316, Ser197/Val198, Leu192/Tyr193, Gly108/Tyr109, Asp105/Ser106
# B13: Erenumab HIC-HPLC Post-peak Fraction F6 (antibody, human IgG2, lambda, V domains shown)
# VH: B1 VH
# VL: B1 VL
# modifications: Asp105 isomerization (isoAsp) 13.2%; Asp105 succinimide 0.1%; Asn102 deamidation ND; Leu195/Ser196 cleavage 0.6%
# B14: Erenumab HIC-HPLC Pre-peak Fraction F3 (antibody, human IgG2, lambda, V domains shown)
# VH: B1 VH
# VL: B1 VL
# modifications: Asp105 isomerization (isoAsp) 19.6%; Asp105 succinimide 12.6%; Asn102 deamidation 1.2%; Leu195/Ser196 cleavage 0.5%
# B15: Erenumab HIC-HPLC Pre-peak Fraction F4 (antibody, human IgG2, lambda, V domains shown)
# VH: B1 VH
# VL: B1 VL
# modifications: Asp105 isomerization (isoAsp) 5.5%; Asp105 succinimide 4.3%; Asn102 deamidation 11.6%; Leu195/Ser196 cleavage 0.4%
# B16: Erenumab HIC-HPLC Post-peak Fraction F7 (antibody, human IgG2, lambda, V domains shown)
# VH: B1 VH
# VL: B1 VL
# modifications: Asp105 isomerization (isoAsp) 2.4%; Asp105 succinimide 0.1%; Asn102 deamidation ND; Leu195/Ser196 cleavage 1.1%
# B17: Erenumab HIC-HPLC Main Fraction F5 (antibody, human IgG2, lambda, V domains shown)
# VH: B1 VH
# VL: B1 VL
# modifications: Asp105 isomerization ND; Asp105 succinimide 0.1%; Asn102 deamidation ND; Leu195/Ser196 cleavage 0.3%
# B18: Erenumab HIC-HPLC Pre-peak Fraction F2 (antibody, human IgG2, lambda, V domains shown)
# VH: B1 VH
# VL: B1 VL
# modifications: Asp105 isomerization (isoAsp) 26.4%; Asp105 succinimide 1.4%; Asn102 deamidation 0.1%; Leu195/Ser196 cleavage 1.0%
# Target: T1, human CGRP receptor (human, UniProt Q16602 23-461; O60894 27-148)
# T1 sequence (Q16602 23-461, chain 1 of 2): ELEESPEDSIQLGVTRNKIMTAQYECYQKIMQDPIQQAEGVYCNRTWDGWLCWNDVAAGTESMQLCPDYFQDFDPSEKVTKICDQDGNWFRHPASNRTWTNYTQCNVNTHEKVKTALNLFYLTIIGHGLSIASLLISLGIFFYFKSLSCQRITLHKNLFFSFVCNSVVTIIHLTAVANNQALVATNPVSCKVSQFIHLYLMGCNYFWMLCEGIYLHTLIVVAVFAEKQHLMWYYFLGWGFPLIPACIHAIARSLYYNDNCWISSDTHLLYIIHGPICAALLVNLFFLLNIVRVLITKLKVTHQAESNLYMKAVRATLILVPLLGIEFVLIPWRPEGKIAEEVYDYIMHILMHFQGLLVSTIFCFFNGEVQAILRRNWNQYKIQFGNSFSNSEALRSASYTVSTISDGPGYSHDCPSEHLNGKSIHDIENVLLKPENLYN
# T1 sequence (O60894 27-148, chain 2 of 2): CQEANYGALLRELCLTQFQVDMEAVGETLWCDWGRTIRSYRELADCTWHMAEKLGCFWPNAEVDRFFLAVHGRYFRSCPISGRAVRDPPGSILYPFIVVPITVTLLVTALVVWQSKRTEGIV
# Assay: cell-based or functional assay
row,% Relative Potency by Cell-Based Bioassay [%],Binder
1,102,B1
2,101,B2
3,82,B3
4,96,B4
5,98,B5
6,92,B6
7,58,B7
8,71,B8

# Target: T1, human CGRP receptor
# Assay: cell-based or functional assay
# Remark: another data set of the same source
row,% Relative Potency by Cell-Based Bioassay [%],Binder
1,62,B9
2,97,B10
3,42,B11

# Target: T1, human CGRP receptor
# Assay: cell-based or functional assay
# Remark: another data set of the same source
row,% Relative Potency by Cell-Based Bioassay [%],Binder
1,33,B12
2,77,B13
3,35,B14
4,34,B15
5,68,B16
6,107,B17
7,24,B18
